Measured values: patent publication US20240084027A1 (BEIJING MABWORKS, published 2024)
Read-outs that look alike come from different tables or passages of the source.

T1: monkey CD40 on HEK293A/monkey CD40 cells (monkey, UniProt P25942 21-277 (human entry))
T1 chain: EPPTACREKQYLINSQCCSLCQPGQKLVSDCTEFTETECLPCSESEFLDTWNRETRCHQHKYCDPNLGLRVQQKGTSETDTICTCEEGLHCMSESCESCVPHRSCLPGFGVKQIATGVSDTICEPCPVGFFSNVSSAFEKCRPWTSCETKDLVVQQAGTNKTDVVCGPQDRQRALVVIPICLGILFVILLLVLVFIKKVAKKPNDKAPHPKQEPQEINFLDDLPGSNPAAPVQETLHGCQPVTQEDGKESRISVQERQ

B1: anti-CD40 antibody 7B4VH2VL2 (antibody, V domains shown)
VH: QVQLQESGPGLVKPSDTLSLTCAVSGYSITTNYYWNWIRQPPGKGLEWMGYIKYDGSNNYNPSLKNRITISVDTSKNQFSLKLSSVTAVDTAVYYCARLDYWGQGTLVTVSS
VL: DVVLTQSPLSLPVTLGQPASISCRSSQSLENSNGNTFLNWFQQRPGQSPRLLIYKVSNRFSGVPDRFSGSGSGTDFTLKISRVEAEDVGVYYCLQVTHVPFTFGQGTKLEIK
notes: also called the monospecific anti-CD40 antibody; 714VH2VL2 [sic]
B2: MBS307-6 (bispecific antibody, human IgG1, kappa, L234A L235A)
heavy 1: QVQLQESGPGLVKPSDTLSLTCAVSGYSITTNYYWNWIRQPPGKGLEWMGYIKYDGSNNYNPSLKNRITISVDTSKNQFSLKLSSVTAVDTAVYYCARLDYWGQGTLVTVSSASTKGPSVFPLAPSSKSTSGGTAALGCLVKDYFPEPVTVSWNSGALTSGVHTFPAVLQSSGLYSLSSVVTVPSSSLGTQTYICNVNHKPSNTKVDKKVEPKSCDKTHTCPPCPAPEAAGGPSVFLFPPKPKDTLMISRTPEVTCVVVDVSHEDPEVKFNWYVDGVEVHNAKTKPREEQYNSTYRVVSVLTVLHQDWLNGKEYKCKVSNKALPAPIEKTISKAKGQPREPQVYTLPPSREEMTKNQVSLWCLVKGFYPSDIAVEWESNGQPENNYKTTPPVLDSDGSFFLYSKLTVDKSRWQQGNVFSCSVMHEALHNHYTQKSLSLSPGK
heavy 2: QVQLQESGPGLVKPSDTLSLTCAVSGYSITTNYYWNWIRQPPGKGLEWMGYIKYDGSNNYNPSLKNRITISVDTSKNQFSLKLSSVTAVDTAVYYCARLDYWGQGTLVTVSSASTKGPSVFPLAPSSKSTSGGTAALGCLVKDYFPEPVTVSWNSGALTSGVHTFPAVLQSSGLYSLSSVVTVPSSSLGTQTYICNVNHKPSNTKVDKKVEPKSCDKTHTCPPCPAPEAAGGPSVFLFPPKPKDTLMISRTPEVTCVVVDVSHEDPEVKFNWYVDGVEVHNAKTKPREEQYNSTYRVVSVLTVLHQDWLNGKEYKCKVSNKALPAPIEKTISKAKGQPREPQVYTLPPSREEMTKNQVSLSCAVKGFYPSDIAVEWESNGQPENNYKTTPPVLDSDGSFFLVSKLTVDKSRWQQGNVFSCSVMHEALHNHYTQKSLSLSPGSGGGGSGGGGSQVQLQESGPGLVKPSQTLSLTCTVSGGSITSDYWNWIRQHPGNKLEYMGYISYTGSTYYNPSLKSRISITRDTSKNQFSLKLSSVTTADTAVYYCARYRDWDVRAMDYWGQGTTVTVSSGGGGSGGGGSGGGGSGGGGSDIVMTQSPDSLAVSLGEKVTMNCKSSQSLLISGNQKNFLTWYQQKPGQPPKLLIYWASTRESGVPDRFSGSGSGTDFTLTISSLQAEDEAVYYCQNDFGFPFTFGQGTKLTAK
light: DVVLTQSPLSLPVTLGQPASISCRSSQSLENSNGNTFLNWFQQRPGQSPRLLIYKVSNRFSGVPDRFSGSGSGTDFTLKISRVEAEDVGVYYCLQVTHVPFTFGQGTKLEIKRTVAAPSVFIFPPSDEQLKSGTASVVCLLNNFYPREAKVQWKVDNALQSGNSQESVTEQDSKDSTYSLSSTLTLSKADYEKHKVYACEVTHQGLSSPVTKSFNRGEC
notes: Asymmetric: anti-CD40 antibody, knob chain without scFv, hole chain with the anti-PD-L1 scFv of 56E5VH5VL4; also called MBS307-6-1 + MBS307-6-2
B3: MBS307-7 (bispecific antibody, human IgG1, kappa, L234A L235A)
heavy: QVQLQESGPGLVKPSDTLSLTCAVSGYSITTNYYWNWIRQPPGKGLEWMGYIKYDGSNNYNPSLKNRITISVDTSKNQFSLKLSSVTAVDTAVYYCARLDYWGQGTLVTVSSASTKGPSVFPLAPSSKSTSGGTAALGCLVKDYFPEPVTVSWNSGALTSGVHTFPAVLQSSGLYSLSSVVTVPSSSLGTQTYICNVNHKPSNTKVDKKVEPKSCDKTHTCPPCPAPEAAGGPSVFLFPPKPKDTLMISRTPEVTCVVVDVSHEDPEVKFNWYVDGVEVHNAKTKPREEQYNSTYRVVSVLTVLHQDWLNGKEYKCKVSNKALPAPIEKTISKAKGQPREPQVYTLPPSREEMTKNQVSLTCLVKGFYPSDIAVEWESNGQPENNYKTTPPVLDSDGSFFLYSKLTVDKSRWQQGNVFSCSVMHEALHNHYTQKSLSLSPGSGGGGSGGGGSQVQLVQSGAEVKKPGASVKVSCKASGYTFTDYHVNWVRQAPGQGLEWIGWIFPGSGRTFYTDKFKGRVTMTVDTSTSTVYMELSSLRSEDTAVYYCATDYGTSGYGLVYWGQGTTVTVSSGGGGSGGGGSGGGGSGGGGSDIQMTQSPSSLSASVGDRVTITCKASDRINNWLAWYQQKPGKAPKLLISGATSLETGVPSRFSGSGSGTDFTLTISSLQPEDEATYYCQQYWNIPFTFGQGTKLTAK
light: DVVLTQSPLSLPVTLGQPASISCRSSQSLENSNGNTFLNWFQQRPGQSPRLLIYKVSNRFSGVPDRFSGSGSGTDFTLKISRVEAEDVGVYYCLQVTHVPFTFGQGTKLEIKRTVAAPSVFIFPPSDEQLKSGTASVVCLLNNFYPREAKVQWKVDNALQSGNSQESVTEQDSKDSTYSLSSTLTLSKADYEKHKVYACEVTHQGLSSPVTKSFNRGEC
notes: Symmetric: full-length anti-CD40 antibody with the anti-PD-L1 scFv of 3C2VH6VL5 on each heavy chain

Columns and labels:
[1] = target: T1, monkey CD40 on HEK293A/monkey CD40 cells; assay: FACS on HEK293A/monkey CD40 cells
Experimental: (§1) The bispecific antibodies as prepared above were tested for their binding capability to cell surface human, monkey and mouse CD40 proteins by FACS, using the HEK293A cells prepared in Example 1 that stably expressed human, monkey or mouse CD40. Briefly, a 96-well plate was seeded with 10⁵ HEK293A cells in 50 μl PBS, and then added with 100 μl serially diluted anti-CD40 antibody 714VH2VL2 and the bispecific antibodies of the disclosure (starting concentration at 40 μg/ml). After incubation at 4° C. for 1 h, the plate was washed by PBST for 3 times. The plate was added with 1:500 diluted APC-goat anti-mouse IgG (Cat #:405308, BioLegen, USA), incubated at 4° for 1 h, washed with PBS for 3 times, and subjected to fluorescence measurement in a FACS machine (BD).

[2] = target: T2, human CD40 on HEK293A/human CD40 cells (human, UniProt P25942 21-277); assay: cell-based or functional assay
[3] = target: T2, human CD40 on HEK293A/human CD40 cells; assay: cell-based or functional assay; remark: listed apart in the source
[4] = target: T2, human CD40 on HEK293A/human CD40 cells; assay: cell-based or functional assay; remark: listed apart in the source
[5] = target: T2, human CD40 on HEK293A/human CD40 cells; assay: FACS on HEK293A/human CD40 cells
Experimental: as §1

[6] = target: T2, human CD40 on HEK293A/human CD40 cells; assay: FACS on HEK293A/human CD40 cells; remark: listed apart in the source
Experimental: as §1
(§2) Following the protocols in Example 4 and Example 5, the bi- or multi-specific antibodies of the disclosure were tested for their binding capability to human PD-L1 and human CD40 proteins by FACS using the HEK293A cells prepared in Example 1 that stably expressed human PD-L1 or human CD40.

[7] = target: T2, human CD40 on HEK293A/human CD40 cells; assay: FACS on HEK293A/human CD40 cells; remark: listed apart in the source
Experimental: as §1, §2

human PD-L1-his protein = target: T3, human PD-L1-his protein (human, UniProt Q9NZQ7 19-238); assay: SPR (BIAcore 8K), human PD-L1-his coupled to CM5 chip, antibody injected
T3 construct: extracellular domain; also called human PD-L1 (ECD)-his; human PD-L1 protein; not shown: his tag
Text: (§3) Using BIAcore™ 8K instrument (GE Life Sciences, US), the binding affinity of the bi- or multi-specific antibodies to human CD40 and PD-L1 was quantitatively measured. Briefly, 100-200 response units (RU) of human CD40-his protein (Cat #:10774-1108H, Sino Biological, CN) or human PD-L1-his protein (Cat #:10084-H08H, Sino Biological, CN) were coupled to CM5 biosensor chips (Cat #:BR-1005-30, GE Life Sciences. USA). The un-reacted groups were then blocked with 1 M ethanolamine. Serially diluted antibodies at concentrations ranging from 0.3 μM to 10 μM were injected into the SPR running buffer (HBS-EP buffer, pH7.4, Cat #:BR-1006-69, GE Life Sciences, USA) at 30 μL/min. The binding affinity was calculated with the RUs of blank controls subtracted, and the association rate (kₐ) and dissociation rate (kd) were determined using the one-to-one Langmuir binding model (BIA Evaluation Software, GE Life Sciences, USA). The equilibrium dissociation constant KD was calculated as the kd/kₐ ratio.

[8] = target: T4, human PD-L1 on HEK293A/human PD-L1 cells (human, UniProt Q9NZQ7 19-290); assay: FACS blocking assay on HEK293A/human PD-L1 cells; blocked ligand PD-1-Fc
Experimental: The bispecific antibodies were tested for their blocking activity on PD-1-PD-L1 binding by FACS using the HEK293A cells stably expressing human PD-L1 molecules as prepared in Example 1. Briefly, a 96-well plate was seeded with 10⁵ HEK293A/human PD-L1 cells in 100 μl cell culture medium, and then added with 50 μl serially diluted anti-PD-L1 antibody 56E5VH5VL4 or MBS307-3 molecules. After incubation at 4° C. for 1 h. the plate was washed with PBST for 3 times, added with 100 μl 200 μg/ml PD-1-Fc fusion proteins (Cat #:10377-10211, Sino Biological, CN), incubated at 4° C. for 1 h, washed with PBST for 3 times, and added with 1:500 diluted PE-goat anti-human IgG (Cat #:PAI-86078, Thermofisher, USA). After incubation at 4° C. for 1 h, the plate was washed with PBST for 3 times and measured for fluorescence using a FACS machine (BD).
Following the protocol of Example 7, the bi- or multi-specific antibodies were tested for their capability to block PD-1-PD-L1 binding by FACS, using the HEK293A cells prepared in Example 1 that stably expressed human PD-L1 molecules.

[9] = target: T4, human PD-L1 on HEK293A/human PD-L1 cells; assay: FACS on HEK293A/human PD-L1 cells
Experimental: as §1, §2

human CD40-his protein = target: T5, human CD40-his protein (human, UniProt P25942 21-193); assay: SPR (BIAcore 8K), human CD40-his coupled to CM5 chip, antibody injected
T5 construct: Bought protein; also called human CD40 protein; CD40 molecules; not shown: his tag
Text: as §3

T4 sequence (Q9NZQ7 19-290 limits assumed): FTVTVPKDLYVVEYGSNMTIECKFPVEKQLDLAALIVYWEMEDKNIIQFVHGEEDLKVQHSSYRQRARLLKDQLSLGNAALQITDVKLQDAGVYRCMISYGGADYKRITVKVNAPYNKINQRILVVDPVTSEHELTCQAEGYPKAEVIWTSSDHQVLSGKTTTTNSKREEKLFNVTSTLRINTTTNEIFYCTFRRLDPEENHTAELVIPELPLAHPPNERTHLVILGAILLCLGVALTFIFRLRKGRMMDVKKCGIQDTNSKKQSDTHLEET
T3 sequence (Q9NZQ7 19-238): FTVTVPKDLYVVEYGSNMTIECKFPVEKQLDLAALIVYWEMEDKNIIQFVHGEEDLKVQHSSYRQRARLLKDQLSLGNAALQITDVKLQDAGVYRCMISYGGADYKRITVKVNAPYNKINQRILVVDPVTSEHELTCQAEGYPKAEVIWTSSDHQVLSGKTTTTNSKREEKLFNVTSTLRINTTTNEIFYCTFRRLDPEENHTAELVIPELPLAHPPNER

| EC50 (read off the curve) [1] | EC50 (read off the curve); HEK-Blue/CD40 reporter, OD630, plate coated with human PD-L1-his [2] | EC50 (read off the curve); HEK-Blue/CD40 reporter, OD630, plate coated with human PD-L1-his [3] | EC50 (read off the curve); HEK-Blue/CD40 reporter, OD630, plate coated with human PD-L1-his [4] | EC50 (read off the curve) [5] | EC50 (read off the curve) [6] | EC50 (read off the curve) [7] | Kd (human PD-L1-his protein) | IC50 (read off the curve) [8] | EC50 (read off the curve) [9] | Kd (human CD40-his protein) | Binder |
| --- | --- | --- | --- | --- | --- | --- | --- | --- | --- | --- | --- |
| ~0.04 µg/mL | ~0.1 µg/mL | ~0.1 µg/mL | ~0.04 µg/mL | ~0.05 µg/mL | ~0.03 µg/mL | ~0.04 µg/mL | – | – | – | – | B1 |
| – | ~0.02 µg/mL | – | – | – | – | ~0.07 µg/mL | 42 nM | ~1 µg/mL | ~0.6 µg/mL | 3.11 nM | B2 |
| – | – | ~0.1 µg/mL | – | – | ~0.06 µg/mL | – | 11.9 nM | – | – | 1.43 nM | B3 |
